Measurements: US20220213227A1 (published 2022)

Columns and labels:
human CD38 on cells = human CD38 on cells (human, UniProt P28907 1-300); test: cell-based or functional assay
[1] = biological target: T1, soluble extracellular region of human CD38 fused to a 6-His-tag (human, UniProt P28907 43-300); test: SPR, antibody captured on protein G chip, CD38-His injected
T1 construct: Extracellular region = UniProt P28907 residues 43-300, with a 6-His-tag at the C-terminal end; also called human CD38 protein; human CD38 antigen

human HER2 on cells = human HER2 on cells (human, UniProt P04626 23-1255); test: cell-based or functional assay
[2] = biological target: T2, human CD3 gamma-epsilon-Fc fusion protein (human); test: SPR using the human CD3gamma-epsilon-Fc construct
T2 construct: also called CD3 gamma-epsilon-Fc protein; human CD3gamma-epsilon-Fc construct

human CD20 on cells = biological target: T3, human CD20 on cells (human, UniProt P11836 1-297); test: cell-based or functional assay
T3 sequence (looked up): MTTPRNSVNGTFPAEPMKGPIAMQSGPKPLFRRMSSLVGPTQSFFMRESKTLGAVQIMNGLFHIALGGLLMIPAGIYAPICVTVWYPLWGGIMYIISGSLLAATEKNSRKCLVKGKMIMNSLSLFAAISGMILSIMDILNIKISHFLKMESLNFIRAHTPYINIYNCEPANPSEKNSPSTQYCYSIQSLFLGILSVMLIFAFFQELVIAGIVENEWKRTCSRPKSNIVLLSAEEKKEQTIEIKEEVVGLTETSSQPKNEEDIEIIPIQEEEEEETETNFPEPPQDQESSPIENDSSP

human EGFR on cells [3] = biological target: T4, human EGFR on cells (human, UniProt P00533 25-1210); test: cell-based or functional assay
human EGFR on cells [4] = biological target: T4, human EGFR on cells; test: cell-based or functional assay; remark: listed apart in the source

B1: BEAT CD38-HB7bestfit/CD3 antibody (bispecific antibody, human IgG1, kappa, L234A L235A)
heavy: QVQLQESGPGLVKPSETLSLTCTVSGFSLISYGVHWVRQPPGKGLEWLGVIWRGGSTDYNAAFMSRLTISKDNSKNQVSLKLSSVTAADTAVYFCAKTLITTGYAMDYWGQGTLVTVSSASTKGPSVFPLAPSSKSTSGGTAALGCLVKDYFPEPVTVSWNSGALTSGVHTFPAVLQSSGLYSLSSVVTVPSSSLGTQTYICNVNHKPSNTKVDKKVEPKSCDKTHTCPPCPAPEAAGGPSVFLFPPKPKDTLMISRTPEVTCVVVDVSHEDPEVKFNWYVDGVEVHNAKTKPREEQYNSTYRVVSVLTVLHQDWLNGKEYKCKVSNKALPAPIEKTISKAKGQPREPAVYTLPPSRDELTKNQVKLVCLVTGFYPSDIAVEWESNGQPENNYYTTPPVLDSDGSFSLVSWLNVDKSRWQQGNVFSCSVMHEALHNHYTQKSLSLSPGK
light: DIQLTQSPSSLSASVGDRVTITCRASEDIYNRLAWYQQKPGKAPKLLISGATSLETGVPSRFSGSGSGKDYTLTISSLQPEDFATYYCQQYWSTPTFGQGTKLEIKRTVAAPSVFIFPPSDEQLKSGTASVVCLLNNFYPREAKVQWKVDNALQSGNSQESVTEQDSKDSTYSLSSTLTLSKADYEKHKVYACEVTHQGLSSPVTKSFNRGEC
chain: EVQLVESGGGLVQPGGSLRLSCAASGYTFTRYTMHWVRQAPGKGLEWIGYINPSRGYTYYADSVKGRFTLSTDKSKNTAYLQMSSLRAEDTAVYYCARYYDDHYCLDYWGQGTLVTVSSGGGGSGGGGSGGGGSGGGASDIQLTQSPSSLSASVGDRVTITCRASSSVSYVAWYQQKPGKAPKRWIYDTSKLYSGVPSRFSGSGSGTDYTLTISSLQPEDFATYYCQQWSSNPPTFGQGTKVEIKGGGGTDKTHTCPPCPAPEAAGGPSVFLFPPKPKDTLMISRTPEVTCVVVDVSHEDPEVQFKWYVDGVEVHNAKTKPREEQYNSTFRVVSVLTVLHQDWLNGKEYKCKVSNKALPAPIEKTISKTKGQPREPEVATFPPSREEMTKNQVTLVCLVTGFYPSDIAVEWESSGQPENNYNTDPPLLESDGSFALSSRLRVDKSRWQQGNIFSCSVMHEALHNRFTQKSLSLSPGK
- EC50 of T cell redirected killing of RPMI 8226 myeloma cells (RDL-FACS) (human CD38 on cells): 0.0022 nM
- Kd [1]: 3.2 nM

B2: BEAT HER2/CD3-2 antibody (bispecific antibody, human IgG1, kappa, L234A L235A)
heavy: not shown
light: not shown
chain: EVQLVESGGGLVQPGGSLRLSCAASGYTFTRYTMHWVRQAPGKGLEWIGYINPSRGYTYYADSVKGRFTLSTDKSKNTAYLQMSSLRAEDTAVYYCARYYDDHYCLDYWGQGTLVTVSSGGGGSGGGGSGGGGSGGGASDIQLTQSPSSLSASVGDRVTITCRASSSVSYVAWYQQKPGKAPKRWIYDTSKLYSGVPSRFSGSGSGTDYTLTISSLQPEDFATYYCQQWSSNPPTFGQGTKVEIKGGGGTDKTHTCPPCPAPEAAGGPSVFLFPPKPKDTLMISRTPEVTCVVVDVSHEDPEVQFKWYVDGVEVHNAKTKPREEQYNSTFRVVSVLTVLHQDWLNGKEYKCKVSNKALPAPIEKTISKTKGQPREPEVATFPPSREEMTKNQVTLVCLVTGFYPSDIAVEWESSGQPENNYNTDPPLLESDGSFALSSRLRVDKSRWQQGNIFSCSVMHEALHNRFTQKSLSLSPGK
- EC50 of T cell redirected killing of BT-474 cells (RDL-MTS) (human HER2 on cells): 0.002 nM
- EC50 of T cell redirected killing of JIMT-1 cells (RDL-MTS) (human HER2 on cells): 0.016 nM
- EC50 of T cell redirected killing of MDA-MB-231 cells (RDL-MTS) (human HER2 on cells): ~0.2 nM
- binding result [2]: binds

B3: BEAT CD20/CD3 (SP34) antibody (bispecific antibody)
heavy: QVQLQQPGAELVKPGASVKMSCKASGYTFTSYNMHWVKQTPGRGLEWIGAIYPGNGDTSYNQKFKGKATLTADKSSSTAYMQLSSLTSEDSAVYYCARSTYYGGDWYFNVWGAGTTVTVSAASTKGPSVFPLAPSSKSTSGGTAALGCLVKDYFPEPVTVSWNSGALTSGVHTFPAVLQSSGLYSLSSVVTVPSSSLGTQTYICNVNHKPSNTKVDKKVEPKSCDKTHTCPPCPAPEAAGGPSVFLFPPKPKDTLMISRTPEVTCVVVDVSHEDPEVQFKWYVDGVEVHNAKTKPREEQYNSTFRVVSVLTVLHQDWLNGKEYKCKVSNKALPAPIEKTISKTKGQPREPAVYTLPPSREEMTKNQVKLVCLVTGFYPSDIAVEWESSGQPENNYYTTPPMLDSDGSFSLVSWLNVDKSRWQQGNIFSCSVMHEALHNRFTQKSLSLSPGK
light: QIVLSQSPAILSASPGEKVTMETTCRASSSVSYIHWFQQKPGSSPKPWIYATSNLASGVPVRFSGSGSGTSYSLTISRVEAEDAATYYCQQWTSNPPTFGGGTKLEIKRTVAAPSVFIFPPSDEQLKSGTASVVCLLNNFYPREAKVQWKVDNALQSGNSQESVTEQDSKDSTYSLSSTLTLSKADYEKHKVYACEVTHQGLSSPVTKSFNRGEC
chain: not shown
- EC50 of T cell redirected killing of Daudi cells (RDL-FACS) (human CD20 on cells): 0.025 nM

B4: BEAT HER2/CD3-1 antibody (bispecific antibody, human IgG1, kappa, L234A L235A)
heavy: EVQLVESGGGLVQPGGSLRLSCAASGYTFTRYTMHWVRQAPGKGLEWIGYINPSRGYTYYADSVKGRFTLSTDKSKNTAYLQMSSLRAEDTAVYYCARYYDDHYCLDYWGQGTLVTVSSASTKGPSVFPLAPSSKSTSGGTAALGCLVKDYFPEPVTVSWNSGALTSGVHTFPAVLQSSGLYSLSSVVTVPSSSLGTQTYICNVNHKPSNTKVDKKVEPKSCDKTHTCPPCPAPEAAGGPSVFLFPPKPKDTLMISRTPEVTCVVVDVSHEDPEVQFKWYVDGVEVHNAKTKPREEQYNSTFRVVSVLTVLHQDWLNGKEYKCKVSNKALPAPIEKTISKTKGQPREPAVYTLPPSREEMTKNQVKLVCLVTGFYPSDIAVEWESSGQPENNYYTTPPMLDSDGSFSLVSWLNVDKSRWQQGNIFSCSVMHEALHNRFTQKSLSLSPGK
light: DIQLTQSPSSLSASVGDRVTITCRASSSVSYVAWYQQKPGKAPKRWIYDTSKLYSGVPSRFSGSGSGTDYTLTISSLQPEDFATYYCQQWSSNPPTFGQGTKVEIKRTVAAPSVFIFPPSDEQLKSGTASVVCLLNNFYPREAKVQWKVDNALQSGNSQESVTEQDSKDSTYSLSSTLTLSKADYEKHKVYACEVTHQGLSSPVTKSFNRGEC
chain: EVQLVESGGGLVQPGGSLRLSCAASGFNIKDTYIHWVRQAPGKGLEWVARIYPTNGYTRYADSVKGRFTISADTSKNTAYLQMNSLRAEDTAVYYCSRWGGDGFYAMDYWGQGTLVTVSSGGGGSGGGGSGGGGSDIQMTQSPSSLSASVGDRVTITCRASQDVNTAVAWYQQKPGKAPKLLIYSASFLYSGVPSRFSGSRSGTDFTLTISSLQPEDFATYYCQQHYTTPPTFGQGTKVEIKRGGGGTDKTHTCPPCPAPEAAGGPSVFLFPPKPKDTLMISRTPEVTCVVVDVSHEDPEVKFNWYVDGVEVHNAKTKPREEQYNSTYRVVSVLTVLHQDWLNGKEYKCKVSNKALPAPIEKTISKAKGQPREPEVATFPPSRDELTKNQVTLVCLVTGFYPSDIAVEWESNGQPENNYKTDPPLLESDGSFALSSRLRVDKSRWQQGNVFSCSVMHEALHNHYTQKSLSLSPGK
notes: also called HER2/CD3-1 bispecific antibody
- EC50 of T cell redirected killing of BT-474 cells (RDL-MTS) (human HER2 on cells): 0.0006 nM
- EC50 of T cell redirected killing of JIMT-1 cells (RDL-FACS) (human HER2 on cells): 0.0014 nM
- EC50 of T cell redirected killing of JIMT-1 cells (RDL-MTS) (human HER2 on cells): 0.021 nM
- EC50 of T cell redirected killing of MDA-MB-231 cells (RDL-FACS) (human HER2 on cells): 0.08 nM
- EC50 of T cell redirected killing of MDA-MB-231 cells (RDL-MTS) (human HER2 on cells): ~0.2 nM
- binding result [2]: binds

B5: VECTIBIX (panitumumab)/hSP34 BEAT (bispecific antibody)
VH: QVQLQESGPGLVKPSETLSLTCTVSGGSVSSGDYYWTWIRQSPGKGLEWIGHIYYSGNTNYNPSLKSRLTISIDTSKTQFSLKLSSVTAADTAIYYCVRDRVTGAFDIWGQGTMVTVSS
VL: DIQMTQSPSSLSASVGDRVTITCQASQDISNYLNWYQQKPGKAPKLLIYDASNLETGVPSRFSGSGSGTDFTFTISSLQPEDIATYFCQHFDHLPLAFGGGTKVEIK
chain: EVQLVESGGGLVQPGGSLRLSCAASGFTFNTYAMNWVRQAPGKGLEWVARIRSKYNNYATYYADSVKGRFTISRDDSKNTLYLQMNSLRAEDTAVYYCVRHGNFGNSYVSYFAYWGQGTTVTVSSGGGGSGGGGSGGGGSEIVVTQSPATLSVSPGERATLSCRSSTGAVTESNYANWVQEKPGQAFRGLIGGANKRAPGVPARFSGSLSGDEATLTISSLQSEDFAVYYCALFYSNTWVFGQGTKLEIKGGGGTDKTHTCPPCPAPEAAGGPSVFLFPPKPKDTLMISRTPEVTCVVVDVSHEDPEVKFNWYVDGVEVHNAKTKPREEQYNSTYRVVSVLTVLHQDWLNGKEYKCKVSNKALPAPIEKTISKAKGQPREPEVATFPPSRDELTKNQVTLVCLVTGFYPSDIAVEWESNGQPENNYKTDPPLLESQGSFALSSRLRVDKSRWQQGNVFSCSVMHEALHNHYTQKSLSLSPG
- EC50 of redirected T-cell lysis of A549 cells (human EGFR on cells [3]): 0.000613 nM
- EC50 of redirected T-cell lysis of HCC827 cells (value of the text, differs from the table) (human EGFR on cells [3]): 0.000156 nM
- EC50 (X)/EC50 (HCC827), HCT116 cells (human EGFR on cells [4]): 2.3 ratio
- EC50 (X)/EC50 (HCC827), MCF7 cells (human EGFR on cells [4]): 4300 ratio
- EC50 (X)/EC50 (HCC827), SW480 cells (human EGFR on cells [4]): 47.9 ratio
- EC50 of redirected T-cell lysis of HCC827 cells (human EGFR on cells [4]): 0.000146 nM
- EC50 of redirected T-cell lysis of HCT116 cells (human EGFR on cells [4]): 0.000341 nM
- EC50 of redirected T-cell lysis of MCF7 cells (human EGFR on cells [4]): 0.627 nM
- EC50 of redirected T-cell lysis of SW480 cells (human EGFR on cells [4]): 0.00699 nM

B6: CD3/CD20 BEAT (SP34 scFv H5/L65 with Rituximab FAB arm) (bispecific antibody)
VH: EVQLVESGGGLVQPGGSLRLSCAASGYTFTSYNMSWVRQAPGKGLEWVSAIYPGNGDTYYADSVKGRFTISRDNSKNTLYLQMNSLRAEDTAVYYCARSTYYGGDWYFNVWGQGTLVTVSS
VL: EVQLVESGGGLVQPGGSLRLSCAASGYTFTSYNMSWVRQAPGKGLEWIGAIYPGNGDTYYADSVKGRATLSADKSKNTAYLQMNSLRAEDTAVYYCARSTYYGGDWYFNVWGQGTLVTVSS
chain: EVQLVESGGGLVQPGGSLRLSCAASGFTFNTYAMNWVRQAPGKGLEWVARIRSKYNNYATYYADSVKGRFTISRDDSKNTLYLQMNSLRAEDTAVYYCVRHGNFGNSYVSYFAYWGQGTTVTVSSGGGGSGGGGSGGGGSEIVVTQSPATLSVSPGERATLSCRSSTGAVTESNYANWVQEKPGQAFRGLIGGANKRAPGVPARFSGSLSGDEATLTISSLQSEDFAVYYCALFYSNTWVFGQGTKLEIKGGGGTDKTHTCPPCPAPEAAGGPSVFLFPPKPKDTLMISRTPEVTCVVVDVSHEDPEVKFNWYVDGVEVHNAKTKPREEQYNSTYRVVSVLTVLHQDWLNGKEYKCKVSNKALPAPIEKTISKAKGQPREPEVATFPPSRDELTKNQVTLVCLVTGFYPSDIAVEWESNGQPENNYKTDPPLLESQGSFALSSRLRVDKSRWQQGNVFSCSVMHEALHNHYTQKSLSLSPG
- EC50 of T cell redirected killing of Raji cells (RDL-FACS) (human CD20 on cells): 0.0376 nM
